Measurements: PMC11346345 (Cell reports, 2024)

Experiments:
Experiment in all cases: SPR
[1] = biological target: recombinant GP38 of CCHFV 200406546-Turkey (Crimean-Congo hemorrhagic fever virus, …, UniProt A0A0U2SQZ0, strain)
[2] = biological target: recombinant GP38 of CCHFV Oman-199809166 (Crimean-Congo hemorrhagic fever virus, …, UniProt A0A0U3C6Q7, strain)
[3] = biological target: recombinant GP38 of CCHFV Kosova-Hoti (Crimean-Congo hemorrhagic fever virus, …, UniProt B2BSL7, strain)

Measured: Kd

B1: ADI-58048 IgG (antibody, V domains shown)
VH: QLQLQESGPGLVKPSETLSLTCTVSGGSITTSHYYWGWIRQPPGKGLEWVGSMYYSGGIYYNPSLKGRVTISVDTSKNQFSLKLSSVTAADTAVYYCALADAPDDAFDIWGQGTMVTVSS
VL: DIQMTQSPSSLSAFVGDRVTITCRASQSISSYLNWYQQKPGKAPKLLIYAASTLQSGVPSRFSGSGSGTDFTLTISSLQSEDFATYYCQESYSIPFTFGPGTKVDIK
< 0.398 nM: all assays above
